Where two headings read alike, the source gives them in different places.
Key:
[1] = biological target: T1, recombinant human FcγRIIIb (human, UniProt O75015 17-200); test: Bio-layer interferometry (Octet QKe), His-tagged FcγRIIIb captured on anti-Penta-His biosensors; range 500-62.5 nM; fit R2 0.9723
T1 construct: Histidine-tagged recombinant receptor captured on anti-Penta-His biosensors; not shown: histidine tag

[2] = biological target: T2, human neonatal Fc Receptor (FcRn) (human, UniProt P55899 24-297; P61769 21-119); test: BLI (Octet QKe) at pH 6.0, His-tagged receptor on anti-Penta-His biosensors; pH 6.0 (to simulate endocytic conditions)
T2 construct: Histidine-tagged recombinant receptor captured on anti-Penta-His biosensors; not shown: histidine tag
T2 sequence (P55899 24-297 limits assumed, chain 1 of 2): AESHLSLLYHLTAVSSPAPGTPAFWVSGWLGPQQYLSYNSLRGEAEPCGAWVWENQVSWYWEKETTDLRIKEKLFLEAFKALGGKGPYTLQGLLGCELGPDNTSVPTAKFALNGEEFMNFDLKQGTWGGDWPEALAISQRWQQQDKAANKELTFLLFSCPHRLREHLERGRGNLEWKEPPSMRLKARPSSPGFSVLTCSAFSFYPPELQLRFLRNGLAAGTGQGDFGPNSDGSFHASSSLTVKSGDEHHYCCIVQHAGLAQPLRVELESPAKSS
T2 sequence (P61769 21-119 limits assumed, chain 2 of 2): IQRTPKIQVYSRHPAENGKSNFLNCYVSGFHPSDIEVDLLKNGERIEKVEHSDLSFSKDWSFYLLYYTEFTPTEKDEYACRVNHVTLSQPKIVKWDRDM

[3] = biological target: T2, human neonatal Fc Receptor (FcRn); test: Bio-layer interferometry (Octet QKe), His-tagged FcRn captured on anti-Penta-His biosensors, association and dissociation at pH 6.0; range 500-62.5 nM; fit R2 0.9757
Protocol: (§1) Binding to recombinant human Fc receptors was measured by bio-layer interferometry using an Octet® QKe instrument. […] Curve fitting was performed using the instrument's analysis software. Binding to FcRn was performed with association and dissociation steps at pH 6.0 as well as pH 7.2.

recombinant human FcγRI [4] = biological target: T3, recombinant human FcγRI (human, UniProt P12314 16-288); test: Bio-layer interferometry (Octet QKe), His-tagged FcγRI captured on anti-Penta-His biosensors; printed as Kdis; range 62.5-7.8 nM; fit R2 0.9955
T3 construct: Histidine-tagged recombinant receptor captured on anti-Penta-His biosensors; also called FcgRI; not shown: histidine tag
T3 sequence (P12314 16-288 limits assumed): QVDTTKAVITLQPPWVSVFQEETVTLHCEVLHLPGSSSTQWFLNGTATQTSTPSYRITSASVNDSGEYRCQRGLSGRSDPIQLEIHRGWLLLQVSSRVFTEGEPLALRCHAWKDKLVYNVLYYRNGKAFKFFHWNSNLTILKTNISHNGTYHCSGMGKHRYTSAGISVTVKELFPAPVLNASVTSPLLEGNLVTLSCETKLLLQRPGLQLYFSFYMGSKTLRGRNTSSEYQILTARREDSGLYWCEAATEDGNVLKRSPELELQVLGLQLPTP

[5] = biological target: T4, recombinant human FcγRIIIa (human, UniProt P08637 17-208); test: Bio-layer interferometry (Octet QKe), His-tagged FcγRIIIa captured on anti-Penta-His biosensors; range 125-15.6 nM; fit R2 0.9895
T4 construct: Histidine-tagged recombinant receptor captured on anti-Penta-His biosensors; not shown: histidine tag
T4 sequence (P08637 17-208 limits assumed): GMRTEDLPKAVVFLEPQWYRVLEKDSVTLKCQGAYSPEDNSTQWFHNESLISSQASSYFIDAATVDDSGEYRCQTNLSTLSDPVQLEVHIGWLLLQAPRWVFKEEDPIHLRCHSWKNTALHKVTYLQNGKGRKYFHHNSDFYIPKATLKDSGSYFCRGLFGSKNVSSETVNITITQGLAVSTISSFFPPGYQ

recombinant human FcγRI [6] = biological target: T3, recombinant human FcγRI; test: Bio-layer interferometry (Octet QKe), His-tagged FcγRI captured on anti-Penta-His biosensors; range 62.5-7.8 nM; fit R2 0.9955
Protocol: (§2) Binding to recombinant human Fc receptors was measured by bio-layer interferometry using an Octet® QKe instrument. […] Curve fitting was performed using the instrument's analysis software.

human KIT = human KIT (human, UniProt P10721 26-976); test: cell-based or functional assay
Sequence of human KIT (P10721 other isoform, or with tags, fused parts or gaps limits assumed): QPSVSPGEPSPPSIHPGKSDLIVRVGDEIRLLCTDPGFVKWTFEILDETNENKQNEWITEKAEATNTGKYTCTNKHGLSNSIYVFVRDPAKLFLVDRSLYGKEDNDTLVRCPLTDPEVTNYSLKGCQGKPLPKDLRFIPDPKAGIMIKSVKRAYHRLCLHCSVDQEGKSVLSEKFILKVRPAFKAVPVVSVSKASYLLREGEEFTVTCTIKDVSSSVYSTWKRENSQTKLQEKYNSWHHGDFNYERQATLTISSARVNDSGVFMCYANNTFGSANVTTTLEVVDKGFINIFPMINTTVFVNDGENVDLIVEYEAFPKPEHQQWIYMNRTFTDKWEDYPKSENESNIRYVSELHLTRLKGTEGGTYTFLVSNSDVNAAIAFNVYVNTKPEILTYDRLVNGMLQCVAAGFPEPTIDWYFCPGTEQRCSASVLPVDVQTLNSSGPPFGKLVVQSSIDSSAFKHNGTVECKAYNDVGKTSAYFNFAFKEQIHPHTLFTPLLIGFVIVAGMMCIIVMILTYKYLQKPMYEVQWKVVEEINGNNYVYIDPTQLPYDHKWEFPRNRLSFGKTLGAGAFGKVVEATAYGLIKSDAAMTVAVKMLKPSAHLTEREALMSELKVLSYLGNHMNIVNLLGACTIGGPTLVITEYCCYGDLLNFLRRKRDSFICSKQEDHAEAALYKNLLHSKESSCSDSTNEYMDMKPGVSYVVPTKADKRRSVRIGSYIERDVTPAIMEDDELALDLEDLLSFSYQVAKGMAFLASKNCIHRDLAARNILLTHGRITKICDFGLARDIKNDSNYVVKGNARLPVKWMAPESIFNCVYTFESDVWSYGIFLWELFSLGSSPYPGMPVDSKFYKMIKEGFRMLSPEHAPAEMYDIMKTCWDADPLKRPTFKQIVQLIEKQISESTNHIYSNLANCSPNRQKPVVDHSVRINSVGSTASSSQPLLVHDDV

[7] = biological target: T5, recombinant human FcγRIIb (human, UniProt P31994 43-217, limits assumed); test: Bio-layer interferometry sensorgrams, FcγRIIb on the sensor, serial dilutions of antibody
T5 construct: Histidine-tagged recombinant receptor captured on anti-Penta-His biosensors; not shown: histidine tag
T5 sequence (looked up): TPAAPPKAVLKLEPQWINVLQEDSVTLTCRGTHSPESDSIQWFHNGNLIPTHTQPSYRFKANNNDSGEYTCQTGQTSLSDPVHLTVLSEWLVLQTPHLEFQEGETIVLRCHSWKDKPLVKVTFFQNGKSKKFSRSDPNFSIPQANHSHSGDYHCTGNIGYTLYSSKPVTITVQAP

[8] = biological target: T2, human neonatal Fc Receptor (FcRn); test: Bio-layer interferometry (Octet QKe), His-tagged FcRn captured on anti-Penta-His biosensors, association and dissociation at pH 6.0; printed as Kdis; range 500-62.5 nM; fit R2 0.9757
Protocol: as §1
(§3) Binding to the human neonatal Fc Receptor (FcRn) was tested at physiological pH 7.2 as well as at pH 6.0 to simulate endocytic conditions.

[9] = biological target: T6, recombinant human FcγRIIa (human, UniProt P12318 36-218, limits assumed); test: Bio-layer interferometry (Octet QKe), His-tagged FcγRIIa captured on anti-Penta-His biosensors; range 500-62.5 nM; fit R2 0.9791
T6 construct: Histidine-tagged recombinant receptor captured on anti-Penta-His biosensors; not shown: histidine tag
T6 sequence (looked up): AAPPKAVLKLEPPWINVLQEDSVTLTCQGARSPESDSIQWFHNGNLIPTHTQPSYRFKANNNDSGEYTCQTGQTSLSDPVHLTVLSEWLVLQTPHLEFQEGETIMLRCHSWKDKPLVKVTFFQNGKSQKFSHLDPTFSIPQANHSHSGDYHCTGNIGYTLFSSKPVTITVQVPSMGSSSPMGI

[10] = biological target: T6, recombinant human FcγRIIa; test: Bio-layer interferometry (Octet QKe), His-tagged FcγRIIa captured on anti-Penta-His biosensors; printed as Kdis; range 500-62.5 nM; fit R2 0.9791
Protocol: as §1

[11] = biological target: T1, recombinant human FcγRIIIb; test: Bio-layer interferometry (Octet QKe), His-tagged FcγRIIIb captured on anti-Penta-His biosensors; printed as Kdis; range 500-62.5 nM; fit R2 0.9723
Protocol: as §1

[12] = biological target: T4, recombinant human FcγRIIIa; test: Bio-layer interferometry (Octet QKe), His-tagged FcγRIIIa captured on anti-Penta-His biosensors; printed as Kdis; range 125-15.6 nM; fit R2 0.9895
Protocol: as §1

[13] = biological target: T6, recombinant human FcγRIIa; test: BLI (Octet QKe), His-tagged receptor on anti-Penta-His biosensors, antibody in solution
Protocol: as §2

[14] = biological target: T1, recombinant human FcγRIIIb; test: as above
Protocol: as §2

[15] = biological target: T4, recombinant human FcγRIIIa; test: as above
Protocol: as §2

recombinant human FcγRI [16] = biological target: T3, recombinant human FcγRI; test: as above
Protocol: as §2

[17] = biological target: T2, human neonatal Fc Receptor (FcRn); test: Bio-layer interferometry (Octet QKe), His-tagged FcRn captured on anti-Penta-His biosensors, association and dissociation at pH 7.2; printed as Kdis; range 500-15.6 nM; fit R2 0.9876
Protocol: as §1, §3

[18] = biological target: T5, recombinant human FcγRIIb; test: Bio-layer interferometry sensorgrams, FcγRIIb on the sensor, serial dilutions of antibody; remark: listed apart in the source
Protocol: as §2

[19] = biological target: T2, human neonatal Fc Receptor (FcRn); test: Bio-layer interferometry (Octet QKe), His-tagged FcRn captured on anti-Penta-His biosensors, association and dissociation at pH 6.0; range 31.25-1.9 nM; fit R2 0.9869
Protocol: as §1, §3

[20] = biological target: T2, human neonatal Fc Receptor (FcRn); test: BLI (Octet QKe) at pH 6.0, His-tagged receptor on anti-Penta-His biosensors
Protocol: as §1, §3

[21] = biological target: T2, human neonatal Fc Receptor (FcRn); test: Bio-layer interferometry (Octet QKe), His-tagged FcRn captured on anti-Penta-His biosensors, association and dissociation at pH 7.2; range 500-15.6 nM; fit R2 0.9876
Protocol: as §1

[22] = biological target: T6, recombinant human FcγRIIa; test: Bio-layer interferometry (Octet QKe), His-tagged FcγRIIa captured on anti-Penta-His biosensors
Protocol: as §2

[23] = biological target: T2, human neonatal Fc Receptor (FcRn); test: Bio-layer interferometry (Octet QKe), His-tagged FcRn captured on anti-Penta-His biosensors, association and dissociation at pH 6.0; printed as Kdis; range 31.25-1.9 nM; fit R2 0.9869
Protocol: as §1

[24] = biological target: T4, recombinant human FcγRIIIa; test: Bio-layer interferometry sensorgrams, FcγRIIIa on the sensor, serial dilutions of antibody
Protocol: as §2

[25] = biological target: T1, recombinant human FcγRIIIb; test: Bio-layer interferometry sensorgrams, FcγRIIIb on the sensor, serial dilutions of antibody
Protocol: as §1

[26] = biological target: T2, human neonatal Fc Receptor (FcRn); test: BLI (Octet QKe) at pH 7.2, His-tagged receptor on anti-Penta-His biosensors
Protocol: as §1, §3

recombinant human FcγRI [27] = biological target: T3, recombinant human FcγRI; test: Bio-layer interferometry (Octet QKe), His-tagged FcγRI captured on anti-Penta-His biosensors
Protocol: as §1

T1 sequence (O75015 17-200 limits assumed): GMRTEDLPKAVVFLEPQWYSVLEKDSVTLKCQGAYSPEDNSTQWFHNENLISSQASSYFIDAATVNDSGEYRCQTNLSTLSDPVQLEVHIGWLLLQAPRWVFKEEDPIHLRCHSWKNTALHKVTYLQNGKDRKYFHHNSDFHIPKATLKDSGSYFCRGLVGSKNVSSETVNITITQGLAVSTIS

B1: mAbc (antibody, human IgG1, kappa)
heavy: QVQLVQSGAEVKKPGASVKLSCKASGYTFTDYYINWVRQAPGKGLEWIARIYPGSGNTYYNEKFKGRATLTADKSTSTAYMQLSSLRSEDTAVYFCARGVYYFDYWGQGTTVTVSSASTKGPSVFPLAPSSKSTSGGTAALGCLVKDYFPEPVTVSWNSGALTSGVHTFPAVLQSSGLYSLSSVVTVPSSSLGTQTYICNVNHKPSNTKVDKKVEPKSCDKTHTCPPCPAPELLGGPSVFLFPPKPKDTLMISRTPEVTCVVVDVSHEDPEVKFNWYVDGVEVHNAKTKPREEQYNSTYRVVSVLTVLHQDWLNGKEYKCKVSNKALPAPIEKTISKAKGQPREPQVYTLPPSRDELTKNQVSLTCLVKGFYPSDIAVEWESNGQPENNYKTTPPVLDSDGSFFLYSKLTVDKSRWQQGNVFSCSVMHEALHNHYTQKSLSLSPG
light: DIVMTQSPSSLSASVGDRVTITCKASQNVRTNVAWYQQKPGKAPKALIYSASYRYSGVPDRFTGSGSGTDFTLTISSLQPEDFADYFCQQYNSYPRTFGGGTKVEIKRTVAAPSVFIFPPSDEQLKSGTASVVCLLNNFYPREAKVQWKVDNALQSGNSQESVTEQDSKDSTYSLSSTLTLSKADYEKHKVYACEVTHQGLSSPVTKSFNRGEC
notes: Positions are EU numbers; also called corresponding antibody with a wild-type (unmutated) IgG1 Fc domain; copies: 2 + 2
- kon [1]: 152000 M⁻¹ s⁻¹
- Kd [2]: 211 nM
- kon [3]: 141000 M⁻¹ s⁻¹
- koff (recombinant human FcγRI [4]): 0.00177 s⁻¹
- kon [5]: 128000 M⁻¹ s⁻¹
- kon (recombinant human FcγRI [6]): 522000 M⁻¹ s⁻¹
- IC50, inhibition of SCF-dependent M-07e cell proliferation (human KIT): 1.12 nM
- binding result [7]: no binding (tested: 500 nM (range given in FIG. 7))
- koff [8]: 0.0296 s⁻¹
- kon [9]: 358000 M⁻¹ s⁻¹
- koff [10]: 0.14 s⁻¹
- koff [11]: 0.124 s⁻¹
- koff [12]: 0.0162 s⁻¹
- Kd [13]: 391 nM
- Kd [14]: 816 nM
- Kd [15]: 127 nM
- Kd (recombinant human FcγRI [16]): 3.39 nM

B2: mAb1 (antibody, human IgG1, kappa)
heavy: QVQLVQSGAEVKKPGASVKLSCKASGYTFTDYYINWVRQAPGKGLEWIARIYPGSGNTYYNEKFKGRATLTADKSTSTAYMQLSSLRSEDTAVYFCARGVYYFDYWGQGTTVTVSSASTKGPSVFPLAPSSKSTSGGTAALGCLVKDYFPEPVTVSWNSGALTSGVHTFPAVLQSSGLYSLSSVVTVPSSSLGTQTYICNVNHKPSNTKVDKKVEPKSCDKTHTCPPCPAPEAQGGPSVFLFPPKPKDTLYITREPEVTCVVVDVSHEDPEVKFNWYVDGVEVHNAKTKPREEQYNSTYRVVSVLTVLHQDWLNGKEYKCQVSNKALPAPIEKTISKAKGQPREPQVYTLPPSRDELTKNQVSLTCLVKGFYPSDIAVEWESNGQPENNYKTTPPVLDSDGSFFLYSKLTVDKSRWQQGNVFSCSVMHEALHNHYTQKSLSLSPG
light: B1 light
notes: Humanized anti-human KIT IgG1 with mutated Fc, expressed in CHO cells; also called antibody mAb 1; anti-KIT antibody; copies: 2 + 2
- koff [17]: 0.0807 s⁻¹
- binding result [18]: no binding (tested: 500 nM (range given in FIG. 7))
- Kd [19]: 0.383 nM
- kon [19]: 2e+06 M⁻¹ s⁻¹
- Kd [20]: 0.38 nM
- kon [21]: 1.05e+06 M⁻¹ s⁻¹
- binding result [22]: no binding (tested: 500 nM)
- koff [23]: 0.000765 s⁻¹
- binding result [24]: no binding (tested: 500 nM (range given in FIG. 7))
- IC50, inhibition of SCF-dependent M-07e cell proliferation (human KIT): 1.11 nM
- binding result [25]: no binding (tested: 500 nM (range given in FIG. 7))
- Kd [26]: 77.1 nM
- binding result (recombinant human FcγRI [27]): no binding (tested: 500 nM)
